The data set deals with MS2 coat protein. The experiment in a line: apparent KD of MS2 coat protein; designed switch direction (-1 OFF switch, 1 ON switch): 1; higher = weaker reporter binding. Put shortly:
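An oligonucleotide input, 200 uM small-molecule ligand, or no input was present during titration of SNAP-549-labelled MS2 coat protein, which was doubled from 0.7 or 1.5 nM to 3 µM. Designed RNA switches had been transcribed on Illumina chips by stalled E. coli RNA polymerase. Apparent KD per design is the median over clusters of curves fitted to normalised cluster fluorescence.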

Where [1] appears, read: input ligand: microRNA oligo, concentration not stated.
[2] abbreviates: Eterna round: R95, input ligand: FMN 200 uM.
[3] abbreviates: Eterna round: R95, input ligand: microRNA oligo, concentration not stated.
Setting [4] is: Eterna round: R95, input ligand: none.

The source of these data is the supplement of paper PMC9170038.

In the case of “GCUGGAAACCACAUGAGGAUCACCCAUGUUCCGGAAACGGCACAGGAUAUCUGUCCGAAAAGGUCAGAGAAGGGUGAAACCAGC [Fiskers NG3ss - 83] (Eterna round: R96, puzzle: Same State NG 3)”, the “apparent KD of MS2 coat protein” value came out at 263 nM (input ligand: FMN 200 uM), 114 nM under setting [1] and 188 nM (input ligand: none).

For “GCUGGAAACCACAUGAGGAUCACCCAUGUUCCGGAAACGGCGCAGGAUAUCUGUCCGAAAAGGUCAGAGAAGGGUGAAACCAGC [Fiskers NG3ss - 80] (Eterna round: R96, puzzle: Same State NG 3)”, the “apparent KD of MS2 coat protein” value worked out at 600 nM (input ligand: FMN 200 uM), 387 nM under setting [1] and 346 nM (input ligand: none).

Regarding “GCUUCACAUGAGGAUCACCCAUGUCGUCGGAGUCGAGGAUAUGGUAACUGUAAACAGUUGCCAGAAGGCGAGGAGC [SS1 - Son of Teenbexe v10] (puzzle: Same State 1)”, the “apparent KD of MS2 coat protein” value came out at 23.2 nM under setting [2], 24.4 nM under setting [3] and 26 nM under setting [4].

Regarding “GCUUCGGCGGUAGGAUAUCUAGGAUAUGGGAAAGACUAAGUCUGUAGGUCACCUAACCCAGAAGGAGAGAAGGACAGGUUCGCC [pwkr ssNG2 2FMN + F9.35] (Eterna round: R96, puzzle: Same State NG 2)”, the “apparent KD of MS2 coat protein” value turned out to be 415 nM (input ligand: FMN 200 uM), 1.71 nM under setting [1] and 1.98 nM (input ligand: none).

Take “GGAAGGAGGUCAGGAUAUGAAUGGAUGGGACAUGAGGAUCACCCAUGUAAUAGAAGAAAUCUACAUUAGAAGGGACAAGGAAGG [AK SSNG2-V2-5] (Eterna round: R96, puzzle: Same State NG 2)”: the “apparent KD of MS2 coat protein” value is 105 nM (input ligand: FMN 200 uM), 83.2 nM under setting [1] and 130 nM (input ligand: none).

On to “GGAAUAUGAUGUUACAUGAGGAUCACCCAUGUAGUAAUAACUAAGGAUAUCUGAAAGGGAGGAGAAGAGAAGGUAGGAUCAUAA [AK SSNG3-V2-10.2] (Eterna round: R96, puzzle: Same State NG 3)”, for which the “apparent KD of MS2 coat protein” value was determined as 60 nM (input ligand: FMN 200 uM), 35.4 nM under setting [1] and 56.4 nM (input ligand: none).

As for “GGAAUAUGAUGUUACAUGAGGAUCACCCAUGUAGUGAUAACUAAGGAUAUCUGUUAAGAUAACUAAGAGAAGGUAGGAUCAUAA [AK SSNG3-V2-8.3] (Eterna round: R96, puzzle: Same State NG 3)”, the “apparent KD of MS2 coat protein” value is, setting by setting: (input ligand: FMN 200 uM) 49.7 nM; under setting [1], 44.9 nM; (input ligand: none) 55.9 nM.

As to “GGAAUAUUUACAGGAUAUGAUUUGUAAAGUCGAUCAGAAGGGUGGAUGUCUUACACGGUUUGUUACAUGAGGAUCACCCAUGUC [SameState NG1 #13] (Eterna round: R96, puzzle: Same State NG 1)”, the “apparent KD of MS2 coat protein” value (input ligand: FMN 200 uM) was found to be 232 nM, the “apparent KD of MS2 coat protein” value under setting [1] is 233 nM and the “apparent KD of MS2 coat protein” value (input ligand: none) is 378 nM.

As to “GGAAUAUUUACAGGAUAUGUUUUGUUAAGUCGAGCAGAAGGGUAGAUGUCUUACACGGUUUGUUACAUGAGGAUCACCCAUGUC [SameState NG1 #16] (Eterna round: R96, puzzle: Same State NG 1)”, the “apparent KD of MS2 coat protein” value came to 26.4 nM (input ligand: FMN 200 uM), 80.3 nM under setting [1] and 126 nM (input ligand: none).

Regarding “GGAAUAUUUACAGGAUAUGUUUUGUUAAGUCGAGCAGAAGGGUGGAUGUCUUACACGGUUUGUUACAUGAGGAUCACCCAUGUC [SameState NG1 #15] (Eterna round: R96, puzzle: Same State NG 1)”, under setting [1], the “apparent KD of MS2 coat protein” value was 188 nM.

For “GGAAUGUGAUGUUACAUGAGGAUCACCCAUGUAGUGACAACUAAGGAUAUCUGAAAAGAAGGAGAGGAGAAGGUAGGAUCACAA [AK SSNG3-V2-15] (Eterna round: R96, puzzle: Same State NG 3)”, the “apparent KD of MS2 coat protein” value is, setting by setting: (input ligand: FMN 200 uM) 30.8 nM; under setting [1], 39.2 nM; (input ligand: none) 58.9 nM.

In the case of “GGACGUCAAUCUCCUAAUUAAACAUGAGGAUCACCCAUGUCACAGGAUAUGAGUCCGAUUAGGACUCAGAAGGGUGAGACGUCC [Fiskers NG3ss - 49] (Eterna round: R96, puzzle: Same State NG 3)”, the “apparent KD of MS2 coat protein” value by setting is: (input ligand: FMN 200 uM) 22.1 nM; under setting [1], 17.2 nM; (input ligand: none) 25.8 nM.

With “GGAGAACAUGAGGAUCACCCAUGUGGAUGGGCGCUAGGAUAUGCGAGAGGGUGGAGAGAAGCAGAAGGAGUGGAUA [JR_SS1_Sub037] (puzzle: Same State 1)”, under setting [3], the “apparent KD of MS2 coat protein” value stood at 50.2 nM.

“GGAGAGAGAGCGCAGGAUAUUCGAGGAGAAACAUGAGGAUCACCCAUGUGAGAGAGAGAGGAGAAGGAGAAGGGUGAGAGAGAGG [Altered State 2-14 - Jieux - Same State 2] (puzzle: Same State 2)”: the “apparent KD of MS2 coat protein” value by setting is: under setting [2], 147 nM; under setting [3], 34.9 nM; under setting [4], 32.6 nM.

“GGAGCCAAGGCAGGAUAUUCAUAUUAACAACAUGAGGAUCACCCAUGUAAGGCCAGAAGGCCUUGGGAGAAGGGCCAUGGCUCG [Xeonanis - 13 mod4] (Eterna round: R96, puzzle: Same State NG 2)”: the “apparent KD of MS2 coat protein” value runs as follows: (input ligand: FMN 200 uM) 26.2 nM; under setting [1], 110 nM; (input ligand: none) 187 nM.

For the sequence “GGAGCCAAGGCAGGAUAUUCAUAUUAAUAACACAUGAGGAUCACCCAUGUGGCCAGAAGGCCUUGGGAGAAGGGCCAUGGCUCG [Xeonanis - 13 mod9] (Eterna round: R96, puzzle: Same State NG 2)”, the “apparent KD of MS2 coat protein” value came out at 28 nM (input ligand: FMN 200 uM), 57.7 nM under setting [1] and 95.3 nM (input ligand: none).

In the case of “GGAGCCGGCACCGAGGAUAUUCAUAUUAAAACAUGAGGAUCACCCAUGUAGAGCGAAAGCUCUUGGGAGAAGGCGGAUCGGCUCG [Xeonanis - 28] (Eterna round: R96, puzzle: Same State 2)”, the “apparent KD of MS2 coat protein” value is, setting by setting: (input ligand: FMN 200 uM) 34.6 nM; under setting [1], 488 nM; (input ligand: none) 665 nM.

Regarding “GGAGCCGGCACCGAGGAUAUUCAUAUUAAAACAUGAGGAUCACCCAUGUAGAGCGAAAGCUCUUGGGAGAAGGCGGAUCGGCUCG [Xeonanis - 28] (puzzle: Same State 2)”, the “apparent KD of MS2 coat protein” value amounted to 34.1 nM under setting [2], 672 nM under setting [3] and 1060 nM under setting [4].

Take “GGAGCCGGCACCGAGGAUAUUCAUAUUAAAACAUGAGGAUCACCCAUGUAGGUCGAAAGACCUUGGGAGAAGGCGGAUCGGCUCG [Xeonanis - 30] (puzzle: Same State 2)”: the “apparent KD of MS2 coat protein” value is, setting by setting: under setting [2], 38.3 nM; under setting [3], 518 nM; under setting [4], 803 nM.

On to “GGAGCCGGCACUGAGGAUAUUCAUAUUAAAACAUGAGGAUCACCCAUGUAGGCCAGAAGGCCAUGGGAGAAGGCAGGUCGGCCCG [Bibimoar - 7] (puzzle: Same State 2)”, for which the “apparent KD of MS2 coat protein” value under setting [2] was 46.7 nM, the “apparent KD of MS2 coat protein” value under setting [3] was found to be 211 nM and the “apparent KD of MS2 coat protein” value under setting [4] was 416 nM.

Regarding “GGAGCCGGCACUGAGGAUAUUCAUAUUAAAACAUGAGGAUCACCCAUGUAGGCCAGAAGGCCUUGGGAGAAGGCAGGUCGGCUCA [Mat - Same State 2 - Mod of UCT - D59] (puzzle: Same State 2)”, the “apparent KD of MS2 coat protein” value under setting [2] worked out at 20.5 nM, the “apparent KD of MS2 coat protein” value under setting [3] stood at 235 nM and the “apparent KD of MS2 coat protein” value under setting [4] is 338 nM.

“GGAGCCGGCACUGAGGAUAUUCAUAUUAAAACAUGAGGAUCACCCAUGUGGGCCAGAAGGCCUUGGGAGAAGGCAGGUCGGCCCG [Bibimoar - 4] (puzzle: Same State 2)”: the “apparent KD of MS2 coat protein” value is, setting by setting: under setting [2], 20.2 nM; under setting [3], 140 nM; under setting [4], 183 nM.

As for “GGAGCCGGCCUAGGAUAUUUCAUUAAAAUACAUGAGGAUCACCCAUGUAGGCCAGAAGGCCUUGGGAAGAAGGAGGUCGGCUCC [Loop Effect - U24,U29] (Eterna round: R96, puzzle: Same State NG 2)”, the “apparent KD of MS2 coat protein” value was 9.56 nM (input ligand: FMN 200 uM), 17.6 nM under setting [1] and 23.1 nM (input ligand: none).

For the sequence “GGAGCCGGCCUAGGAUAUUUCAUUUUAAAACAUGAGGAUCACCCAUGUAGGCCAGAAGGCCUUGGGAAGAAGGAGGUCGGCUCC [Loop Effect - U24,U25,U26] (Eterna round: R96, puzzle: Same State NG 2)”, the “apparent KD of MS2 coat protein” value (input ligand: FMN 200 uM) came out at 17.4 nM, the “apparent KD of MS2 coat protein” value under setting [1] was 33.2 nM and the “apparent KD of MS2 coat protein” value (input ligand: none) turned out to be 69.3 nM.

For “GGAGGACAUGAGGAUCACCCAUGUGGAUGAACGCUAGGAUAUGCGUGCAGGAAGAGUGGAGCAGAAGGAGUGGGAU [JR_SS1_Sub047] (puzzle: Same State 1)”, under setting [3], the “apparent KD of MS2 coat protein” value turned out to be 19.1 nM.

In the case of “GGCCUCUGUCAAGGAUAUGCUACCGUUUCGGUAGCAGAAGGUGAUCACAUGCGGUUCGCCCAUGUUUAGGCCAACAGGCCCGCC (Eterna round: R96, puzzle: Same State NG 1)”, the “apparent KD of MS2 coat protein” value by setting is: (input ligand: FMN 200 uM) 25.1 nM; under setting [1], 5.14 nM; (input ligand: none) 6.87 nM.

“GGCCUGAGUGAAGGAUAUGCUACCGUUUCGGUAGCAGAAGGUCAUCACAUGAGGAUGACCCAUGUUUACGCGAACACGCGCGCC (Eterna round: R96, puzzle: Same State NG 1)”: the “apparent KD of MS2 coat protein” value (input ligand: FMN 200 uM) was 45.9 nM, the “apparent KD of MS2 coat protein” value under setting [1] was found to be 27.2 nM and the “apparent KD of MS2 coat protein” value (input ligand: none) came out at 28.2 nM.

For “GGCCUGCCGCAAGGAUAUGAAGCUUUCGCUCCGUCAGAAGGUGCACAUGAGGAUCACCCAUGUAUGCAGGCCAAGAAAUAAACC [Tisoenat] (Eterna round: R96, puzzle: Same State NG 1)”, the “apparent KD of MS2 coat protein” value amounted to 13.2 nM (input ligand: FMN 200 uM), 25.9 nM under setting [1] and 37.1 nM (input ligand: none).
